Data as given in PMC11189300, “Structure of the human KMN complex and implications for regulation of its assembly” (Nature Structural & Molecular Biology, 2024).

B5: NSL1 (subunit of Mis12C in the KMN structure) (natural protein, human, UniProt Q96IY1 1-281, looked up)
chain: MAGSPELVVLDPPWDKELAAGTESQALVSATPREDFRVRCTSKRAVTEMLQLCGRFVQKLGDALPEEIREPALRDAQWTFESAVQENISINGQAWQEASDNCFMDSDIKVLEDQFDEIIVDIATKRKQYPRKILECVIKTIKAKQEILKQYHPVVHPLDLKYDPDPAPHMENLKCRGETVAKEISEAMKSLPALIEQGEGFSQVLRMQPVIHLQRIHQEVFSSCHRKPDAKPENFITQIETTPTETASRKTSDMVLKRKQTKDCPQRKWYPLRPKKINLDT
notes: NSL1, human; source: Tnao38 insect cells (baculovirus), co-expressed in Mis12C, purified (Talon, SEC)

What was measured:
Conditions in all cases: both partners purified
[1] = target: T1, KNL1 residues 2,021–2,342 (human, UniProt Q8NG31 2021-2342); test: SEC; KNL1 2,021–2,342, ZWINT, Mis12C and SPC24 109–197/SPC25 92–224 mixed equimolar on ice for at least 1 h; 50 mM HEPES pH 8.0, 150 mM NaCl, 2 mM TCEP; S200 5/150 column
T1 construct: KNL1 (CASC5), human, C-terminal region, residues 2,021–2,342; numbering of isoform 1 of the CASC5 gene; also called KNL1_(2,021–2,342); Knl1_(2,021–2,342); source: E. coli BL21(DE3)-Codon-plus-RIPL, purified (glutathione-agarose, TEV cleavage, SEC)
T1 sequence (looked up): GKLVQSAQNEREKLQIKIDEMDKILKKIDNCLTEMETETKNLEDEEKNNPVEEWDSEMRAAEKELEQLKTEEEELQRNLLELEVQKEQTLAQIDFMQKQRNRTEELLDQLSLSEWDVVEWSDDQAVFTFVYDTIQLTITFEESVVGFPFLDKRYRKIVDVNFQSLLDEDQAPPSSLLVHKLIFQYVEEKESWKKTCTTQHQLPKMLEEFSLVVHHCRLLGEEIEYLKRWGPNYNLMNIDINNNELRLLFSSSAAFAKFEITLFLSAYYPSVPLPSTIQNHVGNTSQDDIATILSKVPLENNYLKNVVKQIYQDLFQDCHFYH

[2] = target: T2, Mis12 complex (Mis12C), full length: MIS12, PMF1, NSL1, DSN1 (human, UniProt Q9H081 1-205; Q6P1K2 1-205; Q96IY1 1-281; Q9H410 1-356); test: cryo-EM structure; eight-subunit KMN (full-length Mis12C, SPC24 109–197/SPC25 92–224, ZWINT, KNL1 2,021–2,342), 0.3 mg/ml with 0.003% Triton; reconstruction at 4.5 Å; model fitted from known structures and AF2 predictions and refined against the map
T2 construct: MIS12, human, subunit of the Mis12 complex; PMF1, human, subunit of the Mis12 complex; NSL1, human, subunit of the Mis12 complex; DSN1, human, subunit of the Mis12 complex (DSN1^SORT-HIS); In BLI one partner was biotinylated by sortase (GGGG-biotin peptide); also called Mis12C^WT; wild-type Mis12C; source: Tnao38 insect cells (baculovirus from pBIG1A), purified (Talon, SEC); copies: + + +
T2 sequence (looked up) 1: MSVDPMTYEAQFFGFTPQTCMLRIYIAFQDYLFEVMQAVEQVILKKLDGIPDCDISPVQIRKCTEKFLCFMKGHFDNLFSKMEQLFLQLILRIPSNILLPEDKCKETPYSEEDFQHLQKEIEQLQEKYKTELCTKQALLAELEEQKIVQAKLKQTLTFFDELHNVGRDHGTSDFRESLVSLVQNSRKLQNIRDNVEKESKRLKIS
T2 sequence (looked up) 2: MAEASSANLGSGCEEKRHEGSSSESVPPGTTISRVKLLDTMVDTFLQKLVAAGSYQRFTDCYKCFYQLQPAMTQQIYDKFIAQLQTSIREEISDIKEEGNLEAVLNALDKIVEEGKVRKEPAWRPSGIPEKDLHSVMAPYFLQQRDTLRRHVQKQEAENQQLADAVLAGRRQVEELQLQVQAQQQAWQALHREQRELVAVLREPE
T2 sequence (looked up) 3: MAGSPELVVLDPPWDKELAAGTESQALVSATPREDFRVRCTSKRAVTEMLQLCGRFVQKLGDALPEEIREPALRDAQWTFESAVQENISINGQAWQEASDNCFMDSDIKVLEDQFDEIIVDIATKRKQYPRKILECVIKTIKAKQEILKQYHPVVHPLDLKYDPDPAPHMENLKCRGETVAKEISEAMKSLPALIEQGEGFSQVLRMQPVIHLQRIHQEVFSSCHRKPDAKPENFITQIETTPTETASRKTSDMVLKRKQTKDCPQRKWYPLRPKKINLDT
T2 sequence (looked up) 4: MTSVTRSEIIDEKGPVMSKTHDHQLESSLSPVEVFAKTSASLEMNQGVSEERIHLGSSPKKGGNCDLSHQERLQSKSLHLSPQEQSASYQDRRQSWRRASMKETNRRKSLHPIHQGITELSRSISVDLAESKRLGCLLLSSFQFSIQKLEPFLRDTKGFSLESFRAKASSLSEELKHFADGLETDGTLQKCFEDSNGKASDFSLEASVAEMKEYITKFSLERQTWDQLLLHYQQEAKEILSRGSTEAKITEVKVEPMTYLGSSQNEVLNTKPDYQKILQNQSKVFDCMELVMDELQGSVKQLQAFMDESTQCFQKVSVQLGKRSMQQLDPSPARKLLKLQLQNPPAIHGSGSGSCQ

[3] = target: T3, DSN1 (subunit of Mis12C in the KMN structure) (human, UniProt Q9H410 1-356); test: as above
T3 construct: DSN1, human; also called DSN1^SORT-HIS; source: Tnao38 insect cells (baculovirus), co-expressed in Mis12C, purified (Talon, SEC)
T3 sequence (looked up): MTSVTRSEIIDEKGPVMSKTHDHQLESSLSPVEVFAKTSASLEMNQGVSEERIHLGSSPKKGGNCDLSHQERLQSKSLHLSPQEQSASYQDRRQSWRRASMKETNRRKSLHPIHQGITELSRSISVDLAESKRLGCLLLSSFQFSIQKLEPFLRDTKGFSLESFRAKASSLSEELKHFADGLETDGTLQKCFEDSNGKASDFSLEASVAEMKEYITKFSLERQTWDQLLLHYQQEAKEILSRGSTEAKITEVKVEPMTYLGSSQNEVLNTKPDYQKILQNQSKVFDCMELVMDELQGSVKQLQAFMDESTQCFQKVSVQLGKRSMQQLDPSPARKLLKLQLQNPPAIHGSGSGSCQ

[4] = target: B5; test: as above
[5] = target: T4, Ndc80 complex (Ndc80C): NDC80^HEC1, NUF2, SPC24, SPC25 (human, UniProt O14777 1-642; Q9BZD4 1-464; Q8NBT2 1-197; Q9HBM1 1-224); test: BLI; Octet SA biosensors loaded with the biotinylated ligand, analyte at different concentrations; 25 °C; 50 mM HEPES pH 8.0, 150 mM NaCl, 2 mM TCEP, 0.05% Tween-20; which partner was loaded is not given
T4 construct: NDC80 (HEC1), human; NUF2, human; SPC24, human; SPC25, human; also called complete Ndc80C; copies: + + +
T4 sequence (O14777 whole entry, chain 1 of 2): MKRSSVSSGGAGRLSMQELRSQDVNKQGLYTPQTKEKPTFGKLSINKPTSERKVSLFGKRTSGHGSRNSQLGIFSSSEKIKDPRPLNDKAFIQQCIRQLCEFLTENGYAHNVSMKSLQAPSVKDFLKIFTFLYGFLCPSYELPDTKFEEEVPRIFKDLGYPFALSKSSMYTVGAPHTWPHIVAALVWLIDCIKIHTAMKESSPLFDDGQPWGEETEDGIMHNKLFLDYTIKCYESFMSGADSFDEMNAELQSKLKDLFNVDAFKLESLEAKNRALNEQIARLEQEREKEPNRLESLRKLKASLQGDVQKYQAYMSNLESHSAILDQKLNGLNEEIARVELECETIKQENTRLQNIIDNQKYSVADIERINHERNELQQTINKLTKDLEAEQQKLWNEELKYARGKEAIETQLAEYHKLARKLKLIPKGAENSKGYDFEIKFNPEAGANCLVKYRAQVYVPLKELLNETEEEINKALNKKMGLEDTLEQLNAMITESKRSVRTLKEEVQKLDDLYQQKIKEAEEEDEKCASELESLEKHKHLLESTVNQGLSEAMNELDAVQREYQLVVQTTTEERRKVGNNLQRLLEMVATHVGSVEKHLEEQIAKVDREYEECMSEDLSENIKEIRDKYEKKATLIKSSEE
T4 sequence (Q9BZD4 whole entry, chain 2 of 2): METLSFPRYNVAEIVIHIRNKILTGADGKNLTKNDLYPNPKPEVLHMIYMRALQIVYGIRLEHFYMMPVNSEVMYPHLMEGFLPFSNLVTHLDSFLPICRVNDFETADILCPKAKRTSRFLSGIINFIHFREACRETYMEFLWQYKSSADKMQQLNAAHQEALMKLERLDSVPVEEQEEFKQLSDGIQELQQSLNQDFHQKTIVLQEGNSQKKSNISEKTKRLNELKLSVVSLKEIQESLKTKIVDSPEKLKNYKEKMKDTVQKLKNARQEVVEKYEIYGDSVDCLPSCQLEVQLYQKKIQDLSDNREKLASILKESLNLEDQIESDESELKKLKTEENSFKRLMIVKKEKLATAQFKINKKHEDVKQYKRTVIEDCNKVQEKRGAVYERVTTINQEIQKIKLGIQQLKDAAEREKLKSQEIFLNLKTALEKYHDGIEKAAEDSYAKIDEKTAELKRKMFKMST

[6] = target: T1, KNL1 residues 2,021–2,342; test: cryo-EM structure; eight-subunit KMN (full-length Mis12C, SPC24 109–197/SPC25 92–224, ZWINT, KNL1 2,021–2,342), 0.3 mg/ml with 0.003% Triton; reconstruction at 4.5 Å; model fitted from known structures and AF2 predictions and refined against the map

B1: ZWINT (natural protein, human, UniProt O95229 1-277, looked up)
chain: MEAAETEAEAAALEVLAEVAGILEPVGLQEEAELPAKILVEFVVDSQKKDKLLCSQLQVADFLQNILAQEDTAKGLDPLASEDTSRQKAIAAKEQWKELKATYREHVEAIKIGLTKALTQMEEAQRKRTQLREAFEQLQAKKQMAMEKRRAVQNQWQLQQEKHLQHLAEVSAEVRERKTGTQQELDRVFQKLGNLKQQAEQERDKLQRYQTFLQLLYTLQGKLLFPEAEAEAENLPDDKPQQPTRPQEQSTGDTMGRDPGVSFKAVGLQPAGDVNLP
notes: ZWINT, human; Probably made like the mutants (GST fusion, 3C cleaved); ZWINT was in the cryo-EM sample but is not visible in the map; also called ZWINT^WT
[1]
  binding result: binds

B2: SPC24_(109–197)/SPC25_(92–224) dimer (complex, human)
chain 1: EELKEIEADLERQEKEVDEDTTVTIPSAVYVAQLYHQVSKIEWDYECEPGMVKGIHHGPSVAQPIHLDSTQLSRKFISDYLWSLVDTEW
chain 2: KKQELEVLTANIQDLKEEYSRKKETISTANKANAERLKRLQKSADLYKDRLGLEIRKIYGEKLQFIFTNIDPKNPESPFMFSLHLNEARDYEVSDSAPHLEGLAEFQENVRKTNNFSAFLANVRKAFTATVYN
notes: SPC25, human, residues 92–224 (RWD domain); GST was cleaved off with 3C protease; also called SPC24/SPC25 dimer; source: E. coli BL21(DE3)-codon-plus-RIPL, purified (glutathione-agarose, 3C protease, SEC)
[2]
  binding result: binds
[3]
  binding result: binds
[4]
  binding result: binds

B3: Mis12C with KNL1_(2,026–2,342) bound (complex, human)
chain 1: MSVDPMTYEAQFFGFTPQTCMLRIYIAFQDYLFEVMQAVEQVILKKLDGIPDCDISPVQIRKCTEKFLCFMKGHFDNLFSKMEQLFLQLILRIPSNILLPEDKCKETPYSEEDFQHLQKEIEQLQEKYKTELCTKQALLAELEEQKIVQAKLKQTLTFFDELHNVGRDHGTSDFRESLVSLVQNSRKLQNIRDNVEKESKRLKIS
chain 2: MAEASSANLGSGCEEKRHEGSSSESVPPGTTISRVKLLDTMVDTFLQKLVAAGSYQRFTDCYKCFYQLQPAMTQQIYDKFIAQLQTSIREEISDIKEEGNLEAVLNALDKIVEEGKVRKEPAWRPSGIPEKDLHSVMAPYFLQQRDTLRRHVQKQEAENQQLADAVLAGRRQVEELQLQVQAQQQAWQALHREQRELVAVLREPE
chain 3: MAGSPELVVLDPPWDKELAAGTESQALVSATPREDFRVRCTSKRAVTEMLQLCGRFVQKLGDALPEEIREPALRDAQWTFESAVQENISINGQAWQEASDNCFMDSDIKVLEDQFDEIIVDIATKRKQYPRKILECVIKTIKAKQEILKQYHPVVHPLDLKYDPDPAPHMENLKCRGETVAKEISEAMKSLPALIEQGEGFSQVLRMQPVIHLQRIHQEVFSSCHRKPDAKPENFITQIETTPTETASRKTSDMVLKRKQTKDCPQRKWYPLRPKKINLDT
chain 4: MTSVTRSEIIDEKGPVMSKTHDHQLESSLSPVEVFAKTSASLEMNQGVSEERIHLGSSPKKGGNCDLSHQERLQSKSLHLSPQEQSASYQDRRQSWRRASMKETNRRKSLHPIHQGITELSRSISVDLAESKRLGCLLLSSFQFSIQKLEPFLRDTKGFSLESFRAKASSLSEELKHFADGLETDGTLQKCFEDSNGKASDFSLEASVAEMKEYITKFSLERQTWDQLLLHYQQEAKEILSRGSTEAKITEVKVEPMTYLGSSQNEVLNTKPDYQKILQNQSKVFDCMELVMDELQGSVKQLQAFMDESTQCFQKVSVQLGKRSMQQLDPSPARKLLKLQLQNPPAIHGSGSGSCQ
chain 5: SAQNEREKLQIKIDEMDKILKKIDNCLTEMETETKNLEDEEKNNPVEEWDSEMRAAEKELEQLKTEEEELQRNLLELEVQKEQTLAQIDFMQKQRNRTEELLDQLSLSEWDVVEWSDDQAVFTFVYDTIQLTITFEESVVGFPFLDKRYRKIVDVNFQSLLDEDQAPPSSLLVHKLIFQYVEEKESWKKTCTTQHQLPKMLEEFSLVVHHCRLLGEEIEYLKRWGPNYNLMNIDINNNELRLLFSSSAAFAKFEITLFLSAYYPSVPLPSTIQNHVGNTSQDDIATILSKVPLENNYLKNVVKQIYQDLFQDCHFYH
notes: MIS12, human; PMF1, human; NSL1, human; DSN1, human; numbering of isoform 1 of the CASC5 gene; also called Mis12C + KNL1; source: Mis12C: Tnao38 insect cells, purified; KNL1: E. coli BL21(DE3)-Codon-plus-RIPL, purified; copies: + + + +
[5]
  Kd: ~1 nM

B4: PMF1 (subunit of Mis12C in the KMN structure) (natural protein, human, UniProt Q6P1K2 1-205, looked up)
chain: MAEASSANLGSGCEEKRHEGSSSESVPPGTTISRVKLLDTMVDTFLQKLVAAGSYQRFTDCYKCFYQLQPAMTQQIYDKFIAQLQTSIREEISDIKEEGNLEAVLNALDKIVEEGKVRKEPAWRPSGIPEKDLHSVMAPYFLQQRDTLRRHVQKQEAENQQLADAVLAGRRQVEELQLQVQAQQQAWQALHREQRELVAVLREPE
notes: PMF1, human; source: Tnao38 insect cells (baculovirus), co-expressed in Mis12C, purified (Talon, SEC)
[6]
  binding result: binds

## B5
[6]
  binding result: binds
